Experimental data taken from the nanobody polyreactivity screen of Harvey et al. (2022).

Test: yeast display, Sf9 membrane polyspecificity reagent, FACS + sequencing; frameworks hold sequencing errors
Summary of the method: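 Using colony PCR, genes from sorted yeast display clones were amplified, then sequenced on MiSeq at 2 × 250 and filtered by CDR length. The clones had been stained with 10% biotinylated, detergent-solubilized Sf9 membrane reagent for 1 hour at 4 °C and sorted by FACS into low and high (top ~1%) gates on anti-HA and streptavidin fluorescence. Polyreactivity labels come from the gate of origin.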

| Sequence | polyreactivity (PSR sort gate) |
| --- | --- |
| QVQLVESGGGLVQAGGSLRLSCAASGLIFKFYAMGWYRQAPGKERELVARISSCGGSTYYADSVKGRFTMSRDNAKNTVYLQMNSLKPEDTAVYYCAAGDYYGDRYARSSIFSYYYWGQGTQVTVSS | high polyreactivity |
| QVQLVESGGGLVQAGGSLRLSCAASGTFRRYTMGWYRQAPGKERELVAAITSSGGTYYADSVKGRFTISRDNAKNTVYLQMNSLKPEDTAVYYCAARDYWSRYFRPGIVGWHDYWGQGTQVTVSS | high polyreactivity |
| QVQLVESGGGLVQEGGSLRLICAASGRTFYINDMGWYRQAPGKEREFVAAITWSGGSTYYADSVKGRFTISRDNAKNTVYLQMNSLKPEDTAVYYCARPYRGSPRYYYWGQGTQVTVSS | high polyreactivity |
| QVQLVESGGGLVQAGGSLRLSCAASGITFNEYAMGWYIQAPGKERELVAAISRRGGSTYYADSVKGRFTISRDNAKNTVYLQMNSLKPEDTAVYYCAAYYPSHEYSGFWSDTYEYWGQGTQVTVSS | low polyreactivity |
| QVQLVESGGGLVQAGGSLRLSCAASGSTFGYYTMGWSRQAPGKERELVAAITWSGGSTYYADSVKGRFTISRHNAKNTVYLQMNSLKAEDTAVYYCAADDYWTPFGYWGQGTQVTVSS | low polyreactivity |
| QVQLVESGGGLVQAGGSLRLSCAASGRIFYSYAMGGYRQAPGKERELVAAISSAGSTYYADSVKGSFTISRDNAKNTVYLQMNSLKPEDTAVYYSAKGIWPYHGYRLQRVYDSWGQGTQVTVSS | high polyreactivity |
| QVQLVESGGGLVQAGGSLRLSCAASGFIFYLYAMGWYRQAPGTERELVAAISSSGGGTYYADSVKGRFTISRDNAKNTVYLQMNSLKPEDTAVYYCNVPLSYRSEYDYWGQGTQVTVSS | high polyreactivity |
| QVQLEESGGGLVQAGGSLRLSCAASGLTLGRYAMGWYRQAPGKERELVAVITGGGSTNYADSVKGRFTISRDNAKNTVYLQMNSLKPEDTAVYSCAVRGGIFQTLSTWYRYYYWGQGTQVTVSS | high polyreactivity |
| QVQLVESGGGLVQAGGSLRLSGAASGSTFQYYAMGWYRQAPGKERELVAAISDGTNTNYADSVKGRFTISRDNAKNTVYLQMNSLKPEDTAVYYCAARFSSIVKYVGIGTDEYDYWGQGTQVTVSS | low polyreactivity |
| QVQLVESGGGLVQAGGSLRLSCAASGSIFDDYAMGWYRQSPGQERELVAAISWSGGSTYYADSVKGRFTISRDNAKNTDYLQMNSLKPDDTAVYYCAGYDYDYLYGEYYWGQGTQVTVSS | low polyreactivity |
| QVQLVESGGGLVQAGGSLRLSCAASGIIFRYYAMGWYRQAPGKERELVAGITSNGGSTYYADSVKGRFTISRDNAKNTVYLQMNSLKPVDTAVYYCAAVSLYVWWALEYWGQGTQVTVSS | high polyreactivity |
| QVQLVESGGGLVQARGSLRLTCAASGSTFSENAMGWYRQAPGKERELVAAISRGGGRTYYADSVKGRFTISRDNAKNTVYLQMNSLKPEDTAVYYCNAGLPAGNHGYDYWGQGTQVTVSS | high polyreactivity |
| QVQLGESGGGLVQAGGSLRLSCAASGFTSVRYAKGWYRQAPGKERELVAAITWNGGSTYYADSVKGRFTISRDNAKKSVYLQMNSLKPEDTAVYYCAKDTPYRYSVAYDYWGQGTQVTVSS | high polyreactivity |
| QVQIVESGGGLEQAGGSLRLSCAASGRIFNRYAMGWYRQAPGKDWELVARNSWSGARTYYADSVKGRFTISRDNAKNTVYLQMNRLKPEDTAVSYCAAAVTYPAGGRTSLYEYWGQRTQVTVSS | high polyreactivity |
| QVQLVESGGRLVQAGGSLRLSCAASGRNFGVNAMGWYRQAPGKERELVAAISVSGDSTYYADSVKGRFTISRDNAKNTVYLQMNSLKPEDTAVYYCNAGYTFVPADLTDEYYWGQGTQVTVSS | low polyreactivity |
| QVQLVESGGGLVQAGGSLRLSCAASGFTFVAYAMGWYRQAPGKERELVAAISRRGGPTYYADSVKGRFTISRDNAKYTVYLQMNSLKAEDTAVYYCAAGWKAFDQRRTGRLIRLLGQGTQVTVSS | high polyreactivity |
| QVQLEESGGGLGQAGGSLRLSCAASGRIFRDYAMGWSRQAPGKERELVAAITSGGTTYADSVKGRVTISRDNAKNTVYLQLNSLKPEDTAVYYCNVAWIWGKFDYWGQGTQVTVSS | high polyreactivity |
| QVQLVESGGGLVQAGGSLRLSCAASGSTFNDYVMGWYRQAPGKERELVAAISRSGGSTYYADSVKGRFTISRDNAKNTVYLQMNSLKPEDTAVYYCAAASPGPWRYDYWGQGTQVTVSS | high polyreactivity |
| QVQLVESGGGLVQAGGSLRLSCAASGRIRRYTMGWYRQAPGKVRELVASISGNGGSTYYADSVKGRFTISRDNAKNTVYLQMNSLKPEDTAVYYCARTKQEYTFGQFYLGDYWGQGTQVTVSS | low polyreactivity |
| QVQLVESGGGLVQAGGSLRLSCAASGFTFTRYAMGWYIQAPGKERELVAAISRRSGGRTYYADSVKGRFTISRDNAKNTVYLQMNSLKPEDTAVYYCAADYSLRSGYEYWGQGTQVTVSS | high polyreactivity |

| Sequence | polyreactivity (PSR sort gate) |
| --- | --- |
| QLQLVESGRGLVQAGGSLRLSCAASGIIFYYNAMGWYRQAPGKERELVARITWRAGSTYYADSVKGRFTISRDNAKNTVYLQMNSLKPEDTAVYYCAARFTTTGPRGYYYWGQGTQVTVSS | high polyreactivity |
| QVQLVESGGGLVQAGGSLRLSCAASGSIFDGYAMGWYRQAPGKEREFVASIRFSTGRTYYADSVKGRFTISRDNAKNTVYLQMNSLKPEDTAVYYCNAPQGFVWRYSSWGPYDYWGQGTQVTVSS | high polyreactivity |
| QVQLVESGGGLVQAGGSLSLSCAASGRIFYKYAMGWYRQAPGKESELVAAINTSGGRTYYADSVKGRFTISRDNAKNTVYLQMNSLKPEDTAVYYCKAVGSAYTAYDYWGQGTQVTVSS | high polyreactivity |
| QVQLVESGGGLVQAGGSLRLSCAASGSIFRGNAMGWYRQAPGKERELVATITNGGSTNYADSVKGRFTISRDNAKNTVYLQMNSLKPEDTAVYYCNADHSYHIASTRHVDYWGQGTQVTVSS | low polyreactivity |
| QVQLVESGGGLVQARGSLRLSCAASGSTFIPNTMGWSRQAPGKERELVAAISRRGGSKNYADSVKGRFTISRDNAKNTVYLQMNSLNPEDTAVYYCAAASPRRYRYDYWGQGTQVTVSS | high polyreactivity |
| QVQLVESAGGLVQAGGRLRLSCAAYGFTFNKYAMGWSRQAPGKEREVVAYISSGDRTYYADSVKGRFTISRDNAKNTVYLQMNSLKPEDTAVYYCNAPYRIILENNNYWGHGTQVTVSS | high polyreactivity |
| QVQLVESGGGLVQAGGSLRLSCAASGSTFGGYAMGWYRQAPGKERELVAAITYSGGSTYYADSVKGRFTISRDNAKNTVYLQMNSLKPEVTAVYYCNADDDDALPWWWPYVLDVDYWGQGTQVTVSS | low polyreactivity |
| QVQLVESGGGLVQAGGRLRLICAASGSTFVTNYMGWYRQAPGKERELVAAISSGTSTNYADSVKGRFTISRDNAKNSVYLPMNSLTPEDTAVYYCAADSLKRYDYWGQGTQVTVSS | low polyreactivity |
| QVQLVESGGGLVQAGGSLRLSCAASGFIFSSNAMGWYRQAPGKERELVAAITSSGGGTYYADSVKGRFTISRDNAKNTVYLQMNSLKPEDTAVYYCNAAYKYAIPSYGYWGQGTQVTVSS | low polyreactivity |
| QVQLVESGGGLVQAGGSLRISCAASGITFYANTMGWYRQAPGKEREFVAAISGIGGSTYYADSVKGRFAISRDNAKNTVYLQMNSLKPEDPAVYYCNADVYYFLFGTFDYWGQGTQVTVSS | low polyreactivity |
| QVQLVESRGCLVQAGGSHRLSCAASGSISDVNPMGWYRQARGNERELFAAMTSRRGGTNYADSVKGRFTISRDYAKNTVYLQMNSLNPEDTAVYYCAVYVSTKASKQGYGPGDYWGQGTQVTVSS | low polyreactivity |
| QVQLVESGGGLVQAGGSLRLSCAASGITFHDNAMGWYRQAPGKERELVAGSTSGGSTFYADSVKGRFTISRDNAKNTVYLQMNSLKPEDTAVYYCAARRSKYRRGGGYYWGQGTQVTVSS | high polyreactivity |
| QVQLVESGGGLVQAGGSLRLSCAASGFTFGLYVMGWYRQAPGKERELVAVISRSGGGTYYADSVKGRFTISRDNAKNTVYLQMNSLKPEDSAVYYCAKPFSYITGWYNYWGQGTQVTVSS | high polyreactivity |
| QVQLVESGGGLVQAGGSLRLSCAASGFIFGYYAMGWYRQAPGKERELVAGISWGGARTYYADSVKGRFTISRDNAKNTVYLQMNSLKPEDTAVYYCAATHYGHSISYWFDYWGQGTQVTVSS | high polyreactivity |
| QVQLVESGGGLVQAGGSLRLSCAASGSTFEANAMGWNRPAPWKERELVAVITWTGGSTYYADSVKGRFTISRDNAKNTVYLQMNSLKPEDTAVYYCAADGVVPGRFFWPAHEYDYWGQGTQVTVSS | low polyreactivity |
| QVQLVESGGGLVQAGGSLRLSCAASGRTLIAYAMGWYRQAHGKEREFVAAIRADDGRTYYADSVKGRFTISRDNAKNTVYFQMNSLKPEDTAVYYCDTKADKRYRFGYWGQGTQVTVSS | high polyreactivity |
| QVQLVESGGGLVQAGGSLRLRCAASGSIFWPYAMGWYRQAPGKERELVAGISSGGSTYYADSVKGRFTISRDNAKNTDYLQMNSLKPEDTAVYYCAARWQWLNGYYYWGQGSQVTVSS | high polyreactivity |
| QVQLVESGGGLVQAGGSLRLSCAASGSTFLYNAMGWYRQAPGKEREFVAAISGSGGTTYYADSVKGRFTISRDNAKNTVYLQMNSLNPEDTAVYYCAVSQSWYWYYASDYWGQGTQVTVSS | low polyreactivity |
| QVQLVESGGGLVQAGGSLRLSCAASGRTFWDYGMGWYRQAPGKDRELDATISGNGGDTYYADSVKGRFTISRDTAKNTVYLQMNSLKPEDTAVYYCAADYRFYRTDRHYDYWGQGTQVTVSS | low polyreactivity |
| QVQLVESAGGLVQAGGSLRLSCAASGRTGVNAMGWYRQAPGKERGLVAAINTSVGRTYYADSVKGRFTISRDNAKNTVYLQMNSLKPEDTAVYYCNTDRLGAARYDYWGQGTQVTVSS | low polyreactivity |
